Assay results taken from patent US20240116985A1 (published 2024).
Starred links: 1 amine or outer side, 2 acyl side, 3 side chain; linkers in the order of their positions; H or OH if unused. Positions of bridges follow the written chain, without caps; N, C: chain ends. Non-standard residues stand in square brackets, D forms with d. Primed or numbered codes have the meaning given here. PyrS2″ = (S)-3-amino-1-((pent-4-en-1-yloxy)carbonyl)pyrrolidine-3-carboxylic acid (stapling residue), C=CCCCOC(=O)N1CC[C@@](N[*:1])(C(=O)[*:2])C1; B5(16) = 2-amino-2-(pent-4-en-1-yl)hept-6-enoic acid = 2,2-bis(4-pentenyl)glycine (stitching residue), C=CCCCC(CCCC=C)(N[*:1])C(=O)[*:2]; B5(24) = 2-amino-2-(pent-4-en-1-yl)hept-6-enoic acid, 2,2-bis(4-pentenyl)glycine (stitching residue), C=CCCCC(CCCC=C)(N[*:1])C(=O)[*:2]; B5(4) = 2,2-bis(4-pentenyl)glycine = 2-amino-2-(pent-4-en-1-yl)hept-6-enoic acid (stitching residue), C=CCCCC(CCCC=C)(N[*:1])C(=O)[*:2]; PyrS2 = (S)-3-amino-1-((pent-4-en-1-yloxy)carbonyl)pyrrolidine-3-carboxylic acid, C=CCCCOC(=O)N1CC[C@@](N[*:1])(C(=O)[*:2])C1; B5 = 2-amino-2-(pent-4-en-1-yl)hept-6-enoic acid, C=CCCCC(CCCC=C)(N[*:1])C(=O)[*:2]; Phe(2-Cl) = N[C@@H](Cc1ccccc1Cl)C(=O)O; Bta = N[C@@H](Cc1csc2ccccc12)C(=O)O; αAllylPro = C=CC[C@@]1(C(=O)O)CCCN1; S8 = C=CCCCCCC[C@](C)(N)C(=O)O; hSer = N[C@@H](CCO)C(=O)O

T1: Bcat-Halo (UniProt P35222 1-781, HaloTag NanoBRET 618 Ligand bound in the assay)
T1 construct: Expressed by transfection in HEK293 cells; also called beta-catenin HaloTag NanoBRET construct; not shown: HaloTag
T1 sequence (looked up): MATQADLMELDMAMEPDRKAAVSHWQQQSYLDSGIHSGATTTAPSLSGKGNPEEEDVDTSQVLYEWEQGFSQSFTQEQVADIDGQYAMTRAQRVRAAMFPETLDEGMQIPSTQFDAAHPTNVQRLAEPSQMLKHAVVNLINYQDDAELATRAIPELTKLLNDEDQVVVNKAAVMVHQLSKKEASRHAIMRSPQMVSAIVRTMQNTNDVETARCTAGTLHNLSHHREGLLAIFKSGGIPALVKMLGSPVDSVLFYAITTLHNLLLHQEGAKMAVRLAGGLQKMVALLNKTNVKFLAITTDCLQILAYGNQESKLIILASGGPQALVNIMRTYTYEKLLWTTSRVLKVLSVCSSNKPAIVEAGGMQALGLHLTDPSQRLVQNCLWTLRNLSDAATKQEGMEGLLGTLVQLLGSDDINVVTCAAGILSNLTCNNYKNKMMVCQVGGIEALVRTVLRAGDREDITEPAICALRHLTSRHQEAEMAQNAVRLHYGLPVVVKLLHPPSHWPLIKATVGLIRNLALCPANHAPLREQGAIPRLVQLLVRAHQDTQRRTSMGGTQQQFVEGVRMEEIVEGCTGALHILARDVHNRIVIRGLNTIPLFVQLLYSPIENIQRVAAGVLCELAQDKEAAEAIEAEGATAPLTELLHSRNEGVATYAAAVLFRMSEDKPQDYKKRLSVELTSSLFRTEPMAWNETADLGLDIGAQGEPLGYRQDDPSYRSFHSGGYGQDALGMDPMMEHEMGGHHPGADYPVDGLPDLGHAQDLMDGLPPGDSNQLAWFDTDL

T2: full-length beta-Catenin (Uniprot ID P35222) (Homo sapiens (Human), UniProt P35222 1-781)
T2 construct: The assay text says full-length; also called bCat; B-Catenin
T2 sequence: T1 sequence (looked up)

T3: full-length beta-Catenin (Uniprot ID P35222) (Homo sapiens (Human), UniProt P35222 2-781)
T3 construct: also called bCat; B-Catenin
T3 sequence: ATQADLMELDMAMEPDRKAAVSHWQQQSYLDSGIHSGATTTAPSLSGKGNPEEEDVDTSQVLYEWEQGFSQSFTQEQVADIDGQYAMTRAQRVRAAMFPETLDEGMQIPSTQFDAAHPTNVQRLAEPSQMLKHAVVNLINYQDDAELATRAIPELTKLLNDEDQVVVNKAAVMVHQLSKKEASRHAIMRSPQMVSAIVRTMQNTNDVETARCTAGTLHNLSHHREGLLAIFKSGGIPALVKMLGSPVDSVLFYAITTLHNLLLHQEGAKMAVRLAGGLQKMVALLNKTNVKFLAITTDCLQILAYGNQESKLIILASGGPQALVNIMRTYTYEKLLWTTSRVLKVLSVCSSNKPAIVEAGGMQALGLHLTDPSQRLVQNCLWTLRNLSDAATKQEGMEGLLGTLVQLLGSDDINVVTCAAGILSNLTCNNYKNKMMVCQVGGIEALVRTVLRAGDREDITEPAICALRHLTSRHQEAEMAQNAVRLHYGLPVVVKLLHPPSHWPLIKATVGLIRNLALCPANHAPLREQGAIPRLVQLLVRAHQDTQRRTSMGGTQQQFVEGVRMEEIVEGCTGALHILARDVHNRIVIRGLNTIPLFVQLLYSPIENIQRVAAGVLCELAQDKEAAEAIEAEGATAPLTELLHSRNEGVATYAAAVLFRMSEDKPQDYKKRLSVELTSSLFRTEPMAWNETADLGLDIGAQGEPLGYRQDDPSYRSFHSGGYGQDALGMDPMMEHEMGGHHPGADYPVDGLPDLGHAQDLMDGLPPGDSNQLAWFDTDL

B1: I-1141 (peptide)
peptide: Ac-[αAllylPro]DF[B5(24)]DDAAFS[PyrS2″][Phe(2-Cl)][Bta]T-NH2
modifications: staple 1-4, 4-11
notes: Stapled (stitched) peptide composition; olefin isomer not specified
B2: I-1143 (peptide)
peptide: Ac-[αAllylPro]DF[B5]DDAAFS[PyrS2][Phe(2-Cl)][Bta][hSer]-NH2
modifications: staple 1-4, 4-11
notes: as for B1
B3: I-1144 (peptide)
peptide: Ac-[αAllylPro]DF[B5(24)]DDAAFS[PyrS2″][Phe(2-Cl)][Bta]L-NH2
modifications: staple 1-4, 4-11
notes: as for B1
B4: I-1145 (peptide)
peptide: Ac-[αAllylPro]DF[B5]DDAAFL[PyrS2][Phe(2-Cl)][Bta]T-NH2
modifications: staple 1-4, 4-11
notes: as for B1
B5: I-1146 (peptide)
peptide: Ac-[αAllylPro]DF[B5(16)]DDAAFL[PyrS2″][Phe(2-Cl)][Bta][dT]-NH2
modifications: staple 1-4, 4-11
notes: as for B1
B6: I-1142 (peptide)
peptide: Ac-[αAllylPro]DF[B5]DDAAFS[PyrS2][Phe(2-Cl)][Bta][dT]-NH2
modifications: staple 1-4, 4-11
notes: as for B1
B7: I-1153 (peptide)
peptide: Ac-[αAllylPro]DF[B5(16)]DDLAFS[PyrS2″][Phe(2-Cl)][Bta]Q-NH2
modifications: staple 1-4, 4-11
notes: as for B1
B8: I-1156 (peptide)
peptide: Ac-[αAllylPro]DF[B5(4)]DDLAFT[PyrS2″][Phe(2-Cl)][Bta]S-NH2
modifications: staple 1-4, 4-11
notes: as for B1
B9: I-1157 (peptide)
peptide: Ac-[αAllylPro]DF[B5(4)]DDALFT[PyrS2″][Phe(2-Cl)][Bta]S-NH2
modifications: staple 1-4, 4-11
notes: as for B1
B10: I-601 (peptide)
peptide: XDIXDEAAFQXFXQ
modifications: N-terminal Bnc cap; PL3 (pos 1), B5 (pos 4), S8 (pos 11) stapled (PL3-B5 and B5-S8, olefin metathesis); BztA (pos 13); C-terminal NH2
notes: Stapled peptide; also called Bnc-PL3-Asp-Ile-B5-Asp-Glu-Ala-Ala-Phe-Gln-S8-Phe-BztA-Gln-NH2
B11: I-603 (peptide)
peptide: Ac-[αAllylPro]DI[B5]DQAAFQ[S8]F[Bta]Q-NH2
modifications: staple 1-4, 4-11
notes: Stapled peptide; also called Ac-PL3-Asp-Ile-B5-Asp-Gln-Ala-Ala-Phe-Gln-S8-Phe-BztA-Gln-NH2
B12: I-613 (peptide)
peptide: XDIXDRAAFQXFXQ
modifications: not fully specified; N-terminal Ac; PL3 (pos 1), B5 (pos 4), S8 (pos 11) stapled (PL3-B5 and B5-S8); BztA (pos 13); C-terminal NH2
notes: Stapled peptide; also called Ac-PL3-Asp-Ile-B5-Asp-Arg-Ala-Ala-Phe-Gln-S8-Phe-BztA-Gln-NH2
B13: I-614 (peptide)
peptide: XDIXDRAAFQXFXQ
modifications: not fully specified; N-terminal Ac; PL3 (pos 1), B5 (pos 4), S8 (pos 11) stapled (PL3-B5 and B5-S8); BztA (pos 13); C-terminal NH2
notes: as for B12
B14: I-602 (peptide)
peptide: XDIXDEAAFQXFXQ
modifications: N-terminal 2PyPrpc cap; PL3 (pos 1), B5 (pos 4), S8 (pos 11) stapled (PL3-B5 and B5-S8); BztA (pos 13); C-terminal NH2
notes: Stapled peptide; also called 2PyPrpc-PL3-Asp-Ile-B5-Asp-Glu-Ala-Ala-Phe-Gln-S8-Phe-BztA-Gln-NH2
B15: I-617 (peptide)
peptide: XDLXDEAAFTXFXH
modifications: not fully specified; N-terminal Ac; PL3 (pos 1), B5 (pos 4), S8 (pos 11) stapled (PL3-B5 and B5-S8); BztA (pos 13); C-terminal NH2
notes: Stapled peptide; also called Ac-PL3-Asp-Leu-B5-Asp-Glu-Ala-Ala-Phe-Thr-S8-Phe-BztA-His-NH2

Biological target: T1, Bcat-Halo
Assay: NanoBRET Abs IC50 in HEK293 cells; competitor TCF4-Luc on Bcat-Halo

Binder | IC50 [µM]
B1 | 27.3
B2 | 33.1
B3 | 32.8
B4 | 30.6
B5 | > 20
B6 | > 20
B7 | > 20
B8 | 26.1
B9 | > 20

Biological target: T2, full-length beta-Catenin (Uniprot ID …)
Assay: fluorescence polarization competition; full-length beta-catenin with 5FAM-TCF4(10-53) probe as competitor
Summary of the method: (§1)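 Plate incubated 60 minutes at 20° C. protected from light before reading. Concentrations given are final.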

Binder | IC50 [µM]
B10 | 0.419
B11 | 0.392
B12 | 1.63
B13 | 1.14
B14 | 3.15
B15 | 0.253

Biological target: T3, full-length beta-Catenin (Uniprot ID …)
Assay: fluorescence polarization competition vs 5FAM-TCF4(10-53) on full-length beta-catenin
Summary of the method: as §1

Binder | IC50 [µM]
B2 | 0.012
B4 | 0.018
B5 | 0.033
B6 | 0.022
B7 | 0.012
B8 | 0.014
B9 | 0.036
